Source: the supplement of paper PMC7877785
± gives the uncertainty stated by the source.

Assay: self-splicing fitness, log relative to wild type (ln ratio); higher = more splicing; Tetrahymena group I intron in knt gene, E. coli kanamycin selection, DiMSum; sequences stand for … in CUCUCU…GGAGGGAAAAGUUAUCAGGCAUGCACCUGGUAGCUAGUCUUUAAACCAAUAGAUUGCAUCGGUUUAAAAGGCAAGACCGUCAAAUUGCGGGAAAGGGGUCAACAGCCGUUCAGUACCAAGUCUCAGGGGAAACUUUGAGAUGGCCUUGCAAAGGGUAUGGUAAUAAGCUGACGGACAUGGUCCUAACCACGCAGCCAAGUCCUAAGUCAACAGAUCUUCUGUUGAUAUGGAUGCAGUUCACAGACUAAAUGUCGGUCGGGGAAGAUGUAUUCUUCUCAUAAGAUAUAGUCGGACCUCUCCUUAAUGGGAGCUAGCGGAUGAAGUGAUGCAACACUGGAGCCGCUGGGAACUAAUUUGUAUGCGAAAGUAUAUUGAUUAGUUUUGGAGUACUCGUGGUCG
Method in brief: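 Fitness was computed with DiMSum as the error-weighted combination of replicate fold changes, kanamycin versus none, each normalised to wild type. The library randomised all eight intron nucleotides of the P1ex region, with the intron placed in the knt kanamycin-resistance gene on pET-22b(+) in E. coli BL21(DE3). Six replicate transformations were grown overnight at 37°C or 30°C on LB agar with or without 25 μg/mL kanamycin, plus 100 μg/mL carbenicillin, 50 μM IPTG and 0.2% rhamnose. Pooled colonies were amplicon-sequenced on an Illumina HiSeq 2500.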

Sequence | self-splicing fitness (ln) (30 °C) | self-splicing fitness (ln) (37 °C)
GACGAGCAAUAUUACGCAAA | -3.39 ± 0.27 | -1.96 ± 0.22
GGGGAGCAAUAUUACGCAUU | -3.09 ± 0.27 | -1.93 ± 0.21
AUUCAGCAAUAUUACGGUCA | -0.711 ± 0.12 | -0.789 ± 0.11
GUGCAGCAAUAUUACGUUGU | -3.71 ± 0.17 | -2.56 ± 0.17
ACUAAGCAAUAUUACGUGUA | -2.6 ± 0.13 | -1.38 ± 0.12
UUCGAGCAAUAUUACGAGGG | -3.94 ± 0.3 | -3.12 ± 0.37
GCAUAGCAAUAUUACGAGAU | -3.61 ± 0.46 | -2.13 ± 0.33
UCGAAGCAAUAUUACGAUUC | -4.04 ± 0.39 | -1.74 ± 0.26
CGGGAGCAAUAUUACGGUAC | -2.19 ± 0.38 | 
AAGGAGCAAUAUUACGUCAA | -1.97 ± 0.22 | -2.96 ± 0.4
ACACAGCAAUAUUACGCGAC | -2.72 ± 0.098 | -2.15 ± 0.11
UCCUAGCAAUAUUACGUUAA | -3.69 ± 0.28 | -2.32 ± 0.26
AUUCAGCAAUAUUACGUCAC | -3.45 ± 0.2 | -2.19 ± 0.25
GCGAAGCAAUAUUACGACGU | -2.69 ± 0.21 | -2.02 ± 0.2
UGAAAGCAAUAUUACGAUCC | -0.303 ± 0.14 | 0.92 ± 0.18
GUACAGCAAUAUUACGAUAC | -2.35 ± 0.21 | -2.52 ± 0.22
GAUCAGCAAUAUUACGUGAC | -1.62 ± 0.094 | -1.63 ± 0.12
UGGGAGCAAUAUUACGGGCU | -1.78 ± 0.35 | 
GGCCAGCAAUAUUACGUGGG | -4.31 ± 0.21 | -3.32 ± 0.26
UAUGAGCAAUAUUACGUCGA | -3.12 ± 0.38 | -2.47 ± 0.36
CAUCAGCAAUAUUACGAUUA | -0.634 ± 0.091 | -0.682 ± 0.085
GUUUAGCAAUAUUACGACGC | 0.0175 ± 0.18 | -0.0772 ± 0.24
GACUAGCAAUAUUACGUAAA | -0.826 ± 0.097 | 0.0101 ± 0.12
UCGGAGCAAUAUUACGAGCA | -2.39 ± 0.23 | -1.51 ± 0.27
ACAAAGCAAUAUUACGCAUA | -2.12 ± 0.12 | -0.921 ± 0.11

Sequence | self-splicing fitness (ln) (30 °C) | self-splicing fitness (ln) (37 °C)
CAGAAGCAAUAUUACGGUAG | -0.817 ± 0.065 | -0.323 ± 0.08
UGAAAGCAAUAUUACGGGGA | -1.92 ± 0.21 | -0.977 ± 0.19
CUUAAGCAAUAUUACGUUUG | -3.89 ± 0.2 | -2.73 ± 0.3
CUAGAGCAAUAUUACGUGUU | -3.3 ± 0.26 | -2.8 ± 0.3
GAACAGCAAUAUUACGCCCA | 0.617 ± 0.17 | -0.316 ± 0.24
GCACAGCAAUAUUACGAAGU | -1.3 ± 0.11 | -0.941 ± 0.14
AAUGAGCAAUAUUACGCAGA | -2.8 ± 0.27 | -1.56 ± 0.25
ACGCAGCAAUAUUACGUGUC | -3.37 ± 0.14 | -2.71 ± 0.2
CCGGAGCAAUAUUACGUGAG | -1.33 ± 0.12 | -0.689 ± 0.1
AAUAAGCAAUAUUACGAGAU | -3.82 ± 0.2 | -2.24 ± 0.21
ACGAAGCAAUAUUACGACGC | -0.651 ± 0.18 | -0.221 ± 0.16
GCACAGCAAUAUUACGCCGA | -2.19 ± 0.22 | -1.61 ± 0.17
CACAAGCAAUAUUACGAAAU | -2.91 ± 0.19 | -3.24 ± 0.24
GCCGAGCAAUAUUACGGCCC | -2.4 ± 0.19 | -1.93 ± 0.24
CGAGAGCAAUAUUACGUACG | -3.14 ± 0.17 | -2.28 ± 0.29
GUGGAGCAAUAUUACGGAGC | -2.43 ± 0.2 | -0.177 ± 0.25
CGGAAGCAAUAUUACGUCUU | -1.67 ± 0.083 | -0.53 ± 0.092
AAGUAGCAAUAUUACGGUUC | -2.75 ± 0.19 | -2.08 ± 0.23
ACUGAGCAAUAUUACGCAAG | -2.68 ± 0.28 | -1.54 ± 0.19
GCCAAGCAAUAUUACGCACC | -0.566 ± 0.22 | 0.932 ± 0.41
CAGAAGCAAUAUUACGCCUA | -0.835 ± 0.12 | -0.744 ± 0.093
CGCCAGCAAUAUUACGAAAG | -0.802 ± 0.054 | 0.0641 ± 0.081
GUGUAGCAAUAUUACGGGUG | -2.72 ± 0.14 | -1.13 ± 0.13
GCUCAGCAAUAUUACGGUUG | -4.11 ± 0.27 | -2.28 ± 0.24
AGGCAGCAAUAUUACGCUUA | -0.31 ± 0.1 | -0.299 ± 0.099

Sequence | self-splicing fitness (ln) (30 °C) | self-splicing fitness (ln) (37 °C)
CGUCAGCAAUAUUACGCUCC | -1.3 ± 0.15 | -0.786 ± 0.22
CAUAAGCAAUAUUACGCGUC | -3.98 ± 0.26 | -2.15 ± 0.2
GGGCAGCAAUAUUACGAGGC | -2.26 ± 0.29 | -2.9 ± 0.37
UGCCAGCAAUAUUACGUUAG | -2.26 ± 0.12 | -0.975 ± 0.13
ACUGAGCAAUAUUACGAAUA | -2.97 ± 0.28 | -2.65 ± 0.29
UUCAAGCAAUAUUACGCAUG | -2.8 ± 0.13 | -1.7 ± 0.16
ACAGAGCAAUAUUACGAAAC | -2.71 ± 0.29 | 
GAAAAGCAAUAUUACGUAUG | -1.6 ± 0.079 | -1.74 ± 0.12
CAACAGCAAUAUUACGACGC | -0.56 ± 0.065 | -0.0606 ± 0.085
ACAAAGCAAUAUUACGUGUA | -2.6 ± 0.1 | -1.56 ± 0.084
CCCUAGCAAUAUUACGCUGA | -3.14 ± 0.23 | -2.85 ± 0.38
GACGAGCAAUAUUACGUCCC |  | -0.0984 ± 0.5
GAGAAGCAAUAUUACGCUAU | -2.79 ± 0.19 | -1.31 ± 0.16
GGCUAGCAAUAUUACGGUGC | -1.49 ± 0.19 | -0.767 ± 0.2
CUACAGCAAUAUUACGCUAU | -4.01 ± 0.19 | -2.6 ± 0.18
GGUCAGCAAUAUUACGGCAG | -0.557 ± 0.081 | -0.497 ± 0.11
ACACAGCAAUAUUACGUUUA | -2.9 ± 0.11 | -1.99 ± 0.088
UAGGAGCAAUAUUACGAUAU | -3.96 ± 0.33 | -2.46 ± 0.28
UCCCAGCAAUAUUACGUCAU | -4.04 ± 0.2 | -2.09 ± 0.18
GAAUAGCAAUAUUACGGCUC | 0.451 ± 0.09 | 0.374 ± 0.14
GACUAGCAAUAUUACGGCGA | -0.738 ± 0.079 | -0.303 ± 0.081
UAAUAGCAAUAUUACGGGGG | -3.12 ± 0.19 | -3.37 ± 0.39
ACUGAGCAAUAUUACGUUGC |  | -2.04 ± 0.28
UGGAAGCAAUAUUACGUCUU | -0.99 ± 0.11 | -0.129 ± 0.13
GUUUAGCAAUAUUACGCACU | -1.41 ± 0.15 | -0.128 ± 0.15

Sequence | self-splicing fitness (ln) (30 °C) | self-splicing fitness (ln) (37 °C)
AGCCAGCAAUAUUACGAGAA | -2.99 ± 0.36 | -1.42 ± 0.3
UAACAGCAAUAUUACGCCCC | -1.03 ± 0.28 | -0.834 ± 0.47
CGAAAGCAAUAUUACGAGAU | -3.54 ± 0.34 | -1.55 ± 0.17
AUCAAGCAAUAUUACGCUCA | 0.0216 ± 0.073 | 0.342 ± 0.096
UUGUAGCAAUAUUACGCUUG | -0.622 ± 0.12 | -0.277 ± 0.13
GCCAAGCAAUAUUACGCUUC | -2.75 ± 0.14 | -1.17 ± 0.16
CGCAAGCAAUAUUACGCCCA | -0.622 ± 0.17 | -0.291 ± 0.16
GAAAAGCAAUAUUACGUGAC | -4.06 ± 0.34 | -1.17 ± 0.17
AGCGAGCAAUAUUACGUUCA | -1.81 ± 0.096 | -0.891 ± 0.091
UAACAGCAAUAUUACGACAU | -1.139 ± 0.011 | -0.372 ± 0.032
UUGCAGCAAUAUUACGACAC | -1.37 ± 0.19 | -1.22 ± 0.47
UAGUAGCAAUAUUACGUGCA | -0.861 ± 0.12 | -0.189 ± 0.11
UAUUAGCAAUAUUACGGUUG | -0.953 ± 0.15 | -0.107 ± 0.17
CAUCAGCAAUAUUACGUAGU | -1.66 ± 0.04 | -0.682 ± 0.06
AUAGAGCAAUAUUACGGGAA | -3.43 ± 0.26 | -2.46 ± 0.25
GAUAAGCAAUAUUACGAGGC |  | -2.76 ± 0.44
UACAAGCAAUAUUACGCGUG | -2.09 ± 0.11 | -1.37 ± 0.098
UUCCAGCAAUAUUACGAACC | -2.74 ± 0.42 | 0.108 ± 0.43
CAAGAGCAAUAUUACGAACU | -3.41 ± 0.27 | -2.11 ± 0.26
CAUCAGCAAUAUUACGCCCA | -2.9 ± 0.23 | -2.1 ± 0.21
GUUUAGCAAUAUUACGUCGU | -0.72 ± 0.21 | -0.885 ± 0.21
UCCCAGCAAUAUUACGCAUA | -1.47 ± 0.16 | -1.27 ± 0.15
